# According to US6358897B1, “Alkyl trypsin compositions and methods of use in contact lens cleaning and disinfecting systems” (Alcon Laboratories, Inc., priority 1996, dated 2002):
# Assays:
# Assay type in all cases: physicochemical
# azocasein [1] = test: Stability of Me-trypsin, trypsin and pancreatin in a disinfecting composition (Example 5C), azocasein method; settings: for % Activity Remaining: Example 5C composition, 50 μg/ml (pancreatin 375 μg/ml)
# Procedure: Azocasein Method The following solutions are used in this assay: 1) Buffer solution: 0.05 M sodium phosphate buffer containing 0.9% sodium chloride, pH 7.6. 2) Substrate solution: 2 mg/ml azocasein in the buffer solution mentioned above. The assay is initiated by mixing 1 ml of an appropriately diluted (such that the enzyme activity is in the range of standard curve) enzyme composition in phosphate buffer with 2 ml of azocasein substrate solution (2 mg/ml). After incubation at 37° C. for 20 minutes, the mixture is removed from the incubator and 1 ml of trichloroacetic acid to (14% w/v) is added to stop the enzyme reaction. The mixture is vortexed well and allowed to stand at room temperature for 20 minutes. After centrifuging at 2500 rpm (with a Beckman GS-6R Centrifuge) for 15 minutes, the supernatant is filtered with a serum sampler. 2 ml of the clear yellow filtrate is then adjusted to a neutral pH with 2 ml of 0.5 N sodium hydroxide and the absorbance of 440 nm wavelength light is measured with a spectrophotometer. The amount of azocasein hydrolyzed is calculated based on a standard curve of known concentrations of azocasein solution developed under identical conditions. An enzyme activity unit (“AZ U”) is defined as that amount of enzyme which hydrolyzes 1 μg of azocasein substrate/minute at 37° C. The following is an example of the stability of Me-trypsin in a disinfecting composition of the present invention as compared to analogous compositions containing trypsin or pancreatin. The enzymes were solubilized in the Example 5C composition. The compositions were stored at room temperature or 30° C. for up to 42 days. At various time points, enzyme activity was assayed using the azocasein method.
# azocasein [2] = test: Stability of Me-trypsin versus other trypsin analogs in a Part I composition (azocasein method); settings: for % Activity Remaining: 45° C., 50% L-sorbose 1% borax, pH 5.79 (acetylated trypsin pH 7.54)
# Procedure: Azocasein Method The following solutions are used in this assay: 1) Buffer solution: 0.05 M sodium phosphate buffer containing 0.9% sodium chloride, pH 7.6. 2) Substrate solution: 2 mg/ml azocasein in the buffer solution mentioned above. The assay is initiated by mixing 1 ml of an appropriately diluted (such that the enzyme activity is in the range of standard curve) enzyme composition in phosphate buffer with 2 ml of azocasein substrate solution (2 mg/ml). After incubation at 37° C. for 20 minutes, the mixture is removed from the incubator and 1 ml of trichloroacetic acid to (14% w/v) is added to stop the enzyme reaction. The mixture is vortexed well and allowed to stand at room temperature for 20 minutes. After centrifuging at 2500 rpm (with a Beckman GS-6R Centrifuge) for 15 minutes, the supernatant is filtered with a serum sampler. 2 ml of the clear yellow filtrate is then adjusted to a neutral pH with 2 ml of 0.5 N sodium hydroxide and the absorbance of 440 nm wavelength light is measured with a spectrophotometer. The amount of azocasein hydrolyzed is calculated based on a standard curve of known concentrations of azocasein solution developed under identical conditions. An enzyme activity unit (“AZ U”) is defined as that amount of enzyme which hydrolyzes 1 μg of azocasein substrate/minute at 37° C. […] The enzymes were solubilized in a Part I composition containing 50% (w/v) L-sorbose 1% (w/v) borax (Na2B4O7.10H2O), at pH 5.79, except the acetylated trypsin composition was at pH 7.54. The compositions were stored at 45° C. for 240 hours. At various time points, enzyme activity was assayed using the azocasein method.
# azocasein [3] = test: Enzyme stability of the Example 6 multi-purpose composition versus trypsin or pancreatin compositions, azocasein method; settings: Me-trypsin: Example 6 composition, trypsin/pancreatin: 1.4 mL of Example 3B analog in 120 mL of Example 2B
# Procedure: Azocasein Method The following solutions are used in this assay: 1) Buffer solution: 0.05 M sodium phosphate buffer containing 0.9% sodium chloride, pH 7.6. 2) Substrate solution: 2 mg/ml azocasein in the buffer solution mentioned above. The assay is initiated by mixing 1 ml of an appropriately diluted (such that the enzyme activity is in the range of standard curve) enzyme composition in phosphate buffer with 2 ml of azocasein substrate solution (2 mg/ml). After incubation at 37° C. for 20 minutes, the mixture is removed from the incubator and 1 ml of trichloroacetic acid to (14% w/v) is added to stop the enzyme reaction. The mixture is vortexed well and allowed to stand at room temperature for 20 minutes. After centrifuging at 2500 rpm (with a Beckman GS-6R Centrifuge) for 15 minutes, the supernatant is filtered with a serum sampler. 2 ml of the clear yellow filtrate is then adjusted to a neutral pH with 2 ml of 0.5 N sodium hydroxide and the absorbance of 440 nm wavelength light is measured with a spectrophotometer. The amount of azocasein hydrolyzed is calculated based on a standard curve of known concentrations of azocasein solution developed under identical conditions. An enzyme activity unit (“AZ U”) is defined as that amount of enzyme which hydrolyzes 1 μg of azocasein substrate/minute at 37° C. […] The trypsin or pancreatin compositions were prepared by dispersing 1.4 mL of Example 3B (wherein Me-trypsin was replaced by either trypsin or pancreatin) in 120 mL of Example 2B. The compositions were incubated at room temperature, 30° and 35° C. At the appointed time, aliquots were tested for enzyme activity by the azocasein method. Activity levels were compared with initial levels and expressed as percent remaining activity.
substance,measurement,setting,value
"Trypsin [Native Trypsin, reference compound]",% Activity Remaining,"azocasein [1]; 30° C., 1 day",90.8%
same,% Activity Remaining,"azocasein [1]; 30° C., 2 days",78.7%
same,% Activity Remaining,"azocasein [1]; 30° C., 5 days",66.7%
same,% Activity Remaining,"azocasein [1]; 30° C., 7 days",62.4%
same,% Activity Remaining,"azocasein [1]; 30° C., 14 days",52.4%
same,% Activity Remaining,"azocasein [1]; RT, 1 day",102.5%
same,% Activity Remaining,"azocasein [1]; RT, 2 days",101.5%
same,% Activity Remaining,"azocasein [1]; RT, 5 days",98.5%
same,% Activity Remaining,"azocasein [1]; RT, 7 days",93.6%
same,% Activity Remaining,"azocasein [1]; RT, 14 days",85.7%
same,% Activity Remaining,"azocasein [1]; RT, 21 days",79.6%
same,% Activity Remaining,"azocasein [1]; RT, 28 days",74.4%
same,% Activity Remaining,"azocasein [1]; RT, 35 days",73.8%
same,% Activity Remaining,"azocasein [1]; RT, 42 days",61.3%
same,% Activity Remaining,azocasein [2]; 0 Hr.,100.0%
same,% Activity Remaining,azocasein [2]; 64 Hr.,62.9%
same,% Activity Remaining,azocasein [2]; 96 Hr.,56.8%
same,% Activity Remaining,azocasein [2]; 120 Hr.,53.1%
same,% Activity Remaining,azocasein [2]; 144 Hr.,49.1%
same,% Activity Remaining,azocasein [2]; 240 Hr.,41.4%
same,% Remaining Activity,"azocasein [3]; 30° C., 1 week",65.7%
same,% Remaining Activity,"azocasein [3]; 30° C., 2 weeks",54.6%
same,% Remaining Activity,"azocasein [3]; 30° C., 3 weeks",47.1%
same,% Remaining Activity,"azocasein [3]; 30° C., 4 weeks",44.9%
same,% Remaining Activity,"azocasein [3]; 30° C., 6 weeks",35.8%
same,% Remaining Activity,"azocasein [3]; 30° C., 8 weeks",30.4%
same,% Remaining Activity,"azocasein [3]; 35° C., 1 week",30.8%
same,% Remaining Activity,"azocasein [3]; 35° C., 2 weeks",19.9%
same,% Remaining Activity,"azocasein [3]; 35° C., 3 weeks",13.3%
same,% Remaining Activity,"azocasein [3]; 35° C., 4 weeks",12.8%
same,% Remaining Activity,"azocasein [3]; 35° C., 6 weeks",8.8%
same,% Remaining Activity,"azocasein [3]; 35° C., 8 weeks",5.2%
same,% Remaining Activity,"azocasein [3]; RT, 1 week",93.5%
same,% Remaining Activity,"azocasein [3]; RT, 2 weeks",86.8%
same,% Remaining Activity,"azocasein [3]; RT, 3 weeks",82.5%
same,% Remaining Activity,"azocasein [3]; RT, 4 weeks",79.5%
same,% Remaining Activity,"azocasein [3]; RT, 6 weeks",71.0%
same,% Remaining Activity,"azocasein [3]; RT, 8 weeks",64.2%
methyl trypsin [Me-Trypsin],% Activity Remaining,"azocasein [1]; 30° C., 1 day",99.7%
same,% Activity Remaining,"azocasein [1]; 30° C., 2 days",97.8%
same,% Activity Remaining,"azocasein [1]; 30° C., 5 days",96.1%
same,% Activity Remaining,"azocasein [1]; 30° C., 7 days",93.5%
same,% Activity Remaining,"azocasein [1]; 30° C., 14 days",91.8%
same,% Activity Remaining,"azocasein [1]; 30° C., 21 days",86.7%
same,% Activity Remaining,"azocasein [1]; 30° C., 28 days",82.7%
same,% Activity Remaining,"azocasein [1]; 30° C., 35 days",80.0%
same,% Activity Remaining,"azocasein [1]; 30° C., 42 days",76.3%
same,% Activity Remaining,"azocasein [1]; RT, 1 day",100.9%
same,% Activity Remaining,"azocasein [1]; RT, 2 days",100.8%
same,% Activity Remaining,"azocasein [1]; RT, 5 days",97.9%
same,% Activity Remaining,"azocasein [1]; RT, 7 days",99.4%
same,% Activity Remaining,"azocasein [1]; RT, 14 days",100.0%
same,% Activity Remaining,"azocasein [1]; RT, 21 days",98.5%
same,% Activity Remaining,"azocasein [1]; RT, 28 days",96.6%
same,% Activity Remaining,"azocasein [1]; RT, 35 days",96.5%
same,% Activity Remaining,"azocasein [1]; RT, 42 days",94.0%
same,stability in a disinfecting composition over analogous compositions containing trypsin or pancreatin,azocasein [1]; summary of Table 2,superior stability
same,% Activity Remaining,azocasein [2]; 0 Hr.,100.0%
same,% Activity Remaining,azocasein [2]; 64 Hr.,89.4%
same,% Activity Remaining,azocasein [2]; 96 Hr.,86.3%
same,% Activity Remaining,azocasein [2]; 120 Hr.,84.7%
same,% Activity Remaining,azocasein [2]; 144 Hr.,82.2%
same,% Activity Remaining,azocasein [2]; 240 Hr.,76.1%
same,enzyme stability in a Part I composition over other trypsin related enzyme compositions,azocasein [2]; summary of Table 1,superior enzyme stability
same,% Remaining Activity,"azocasein [3]; 30° C., 1 week",97.0%
same,% Remaining Activity,"azocasein [3]; 30° C., 2 weeks",97.2%
same,% Remaining Activity,"azocasein [3]; 30° C., 3 weeks",91.1%
same,% Remaining Activity,"azocasein [3]; 30° C., 4 weeks",90.6%
same,% Remaining Activity,"azocasein [3]; 30° C., 6 weeks",85.8%
same,% Remaining Activity,"azocasein [3]; 30° C., 8 weeks",83.0%
same,% Remaining Activity,"azocasein [3]; 35° C., 1 week",82.1%
same,% Remaining Activity,"azocasein [3]; 35° C., 2 weeks",75.0%
same,% Remaining Activity,"azocasein [3]; 35° C., 3 weeks",71.4%
same,% Remaining Activity,"azocasein [3]; 35° C., 4 weeks",65.2%
same,% Remaining Activity,"azocasein [3]; 35° C., 6 weeks",55.9%
same,% Remaining Activity,"azocasein [3]; 35° C., 8 weeks",50.3%
same,% Remaining Activity,"azocasein [3]; RT, 1 week",101.3%
same,% Remaining Activity,"azocasein [3]; RT, 2 weeks",99.6%
same,% Remaining Activity,"azocasein [3]; RT, 3 weeks",98.4%
same,% Remaining Activity,"azocasein [3]; RT, 4 weeks",98.1%
same,% Remaining Activity,"azocasein [3]; RT, 6 weeks",96.0%
same,% Remaining Activity,"azocasein [3]; RT, 8 weeks",96.4%
